Laboratory results published in patent US20180002444A1 (ROCKEFELLER UNIVERSITY, published 2018).
Values belong to the binder of their own block, whether it stands above or below them.

Tests used:
recombinant human MERTK [1] = target: T1, recombinant human MERTK (human, UniProt Q12866 26-499, limits assumed); experiment: biolayer interferometry, M6 loaded on AMQ sensor, hMer as analyte, 1:1 model, local fit at 1.25 nM hMer
T1 construct: Analyte in solution in biolayer interferometry; also called hMer
T1 sequence: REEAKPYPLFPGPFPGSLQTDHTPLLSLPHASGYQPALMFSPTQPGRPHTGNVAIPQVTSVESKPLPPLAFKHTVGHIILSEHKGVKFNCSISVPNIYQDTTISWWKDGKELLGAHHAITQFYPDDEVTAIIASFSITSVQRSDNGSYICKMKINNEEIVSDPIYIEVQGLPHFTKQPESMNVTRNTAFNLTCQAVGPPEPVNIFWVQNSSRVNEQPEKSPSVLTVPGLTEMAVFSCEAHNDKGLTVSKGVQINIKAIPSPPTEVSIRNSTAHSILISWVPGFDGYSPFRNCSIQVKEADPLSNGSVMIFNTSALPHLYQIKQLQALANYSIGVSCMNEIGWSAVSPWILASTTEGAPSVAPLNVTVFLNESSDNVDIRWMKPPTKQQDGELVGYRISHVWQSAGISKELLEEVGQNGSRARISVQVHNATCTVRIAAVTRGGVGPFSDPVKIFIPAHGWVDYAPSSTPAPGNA
Experimental: (§1) FIG. 11: M6 binds to MERTK with high affinity. M6 binds to human MERTK with high affinity. A diagram showing antibody binding kinetics for M6 (Mer-M6) against human MERTK (hMer) using biolayer interferometry. Purified M6 was loaded on an AMQ sensor at a concentration of 1 microgram/mL to test binding against analytes in solution. All analytes were prepared at 5 nM with a 2-fold dilution series for a total of 7 concentrations. Kinetic fits were calculated using a 1:1 model, with Local fits for each concentration as well as an overall Global fit.

recombinant human MERTK [2] = target: T1, recombinant human MERTK; experiment: biolayer interferometry, M19 loaded on AMQ sensor, hMer as analyte, 1:1 model, local fit at 5 nM hMer
Experimental: as §1, with “7: M19” for “11: M6 binds to MERTK with high affinity. M6”, “M19 (Mer-M19)” for “M6 (Mer-M6)”, “M19” for “M6”, “global” for “Global”

Kd (recombinant human MERTK [1]): 0.048 nM | koff (recombinant human MERTK [1]): 0.00015 s⁻¹
B1: antibody M6 (antibody, V domains shown)
VH: QVKLEESGPELKKPGETVKISCKASGYTFTNYGMNWVKQAPGKGLKWMGWINTYTGEPTYADDFKGRFVFSLETSASTAYLQINNLKNEDMATYFCARKSTVVSRYFDVWGAGTTVTVSS
VL: DIVLTQTHKFMSTSVGDRVSITCKASQDVGDAVTWCQQKPGQPPKLLIYWASTRHTGVPDRFTGSGSGTDFTLTINNVQSEDLADYFCQQYRSYPLTFGAGTKLELKR
notes: mouse hybridoma monoclonal antibody; also called Mer-M6

Kd (recombinant human MERTK [2]): 0.248 nM | kon (recombinant human MERTK [2]): 3.83e+06 M⁻¹ s⁻¹
B2: antibody M19 (antibody, V domains shown)
VH: EVQLEESGPDLKKPGETVKISCKASNYTFTDYSMHWVKQAPGKGLKWVGWINTDTGEPTYADDFKGRFAFSLETSASTAYLQINNLKNEDTATYFCARWFGAMDYWGQGTSVTVSS
VL: DIVITQSHKFMSTSVGDRVSITCKASQDVTNVVAWYQQKPGQSPKLLIYSASYRYTGVPDRFTGSGSGTDFTFTISSVQAEDLAVYYCQQYYRTPRTFGGGTKLEIKR
notes: mouse hybridoma monoclonal antibody; also called Mer-M19
